{
  "source": "IntAct's records for PubMed 20881132",
  "target": "sgg_drome sgg (UniProt P18431)",
  "sequence (P18431 whole entry)": "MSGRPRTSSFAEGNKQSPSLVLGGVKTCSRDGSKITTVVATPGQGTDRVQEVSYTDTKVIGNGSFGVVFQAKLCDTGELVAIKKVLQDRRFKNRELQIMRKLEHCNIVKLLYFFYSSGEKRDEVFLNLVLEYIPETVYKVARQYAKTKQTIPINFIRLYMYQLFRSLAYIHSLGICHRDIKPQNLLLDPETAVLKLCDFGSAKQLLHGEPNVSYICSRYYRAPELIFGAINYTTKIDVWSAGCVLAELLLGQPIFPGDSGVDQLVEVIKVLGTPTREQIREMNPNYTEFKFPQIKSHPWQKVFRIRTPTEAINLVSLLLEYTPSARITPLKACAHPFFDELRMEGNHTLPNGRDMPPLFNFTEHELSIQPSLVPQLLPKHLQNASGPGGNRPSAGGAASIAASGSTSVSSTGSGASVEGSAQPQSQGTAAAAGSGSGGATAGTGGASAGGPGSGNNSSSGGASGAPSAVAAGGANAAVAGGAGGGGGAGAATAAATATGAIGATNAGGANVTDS",
  "data": [
    {"substance": "Leucine-rich repeat serine/threonine-protein kinase 2 (Homo sapiens), Q5S007 G2019S", "values": [
      {"measurement": "effect of a mutation on the interaction", "value": "increasing interaction"}
    ]}
  ]
}
